Assay results: US20220363757A1

Columns and labels:
Assay in all cases: SPR, Fab over captured mutant LAG-3-Fc
[1] = target: human LAG-3 domain 1-2 Fc fusion, point mutation #27 L80A (human) (UniProt P18627)
[2] = target: human LAG-3 domain 1-2 Fc fusion, point mutation #73 R137A (human) (UniProt P18627)
[3] = target: human LAG-3 domain 1-2 Fc fusion, point mutation #45 R98A (human) (UniProt P18627)
[4] = target: human LAG-3 domain 1-2 Fc fusion, point mutation #23 P76A (human) (UniProt P18627)
[5] = target: human LAG-3 domain 1-2 Fc fusion, point mutation #46 Y99A (human) (UniProt P18627)
human LAG-3 domain 1-2 Fc fusion, point mutation #46 Y99A (human), sequence (P18627 23-266 Y99A): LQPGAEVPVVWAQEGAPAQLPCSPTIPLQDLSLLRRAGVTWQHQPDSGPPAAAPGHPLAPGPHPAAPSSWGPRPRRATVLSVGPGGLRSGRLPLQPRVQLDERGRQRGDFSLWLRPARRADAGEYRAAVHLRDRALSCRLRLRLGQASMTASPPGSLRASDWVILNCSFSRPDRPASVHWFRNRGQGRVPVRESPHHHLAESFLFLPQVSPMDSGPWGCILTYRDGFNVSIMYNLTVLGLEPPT

[6] = target: human LAG-3 domain 1-2 Fc fusion, point mutation #77 R148A (human) (UniProt P18627)
human LAG-3 domain 1-2 Fc fusion, point mutation #77 R148A (human), sequence (P18627 23-266 R148A): as the sequence (P18627 23-266 Y99A) above, with A77Y, R126A counted along it

[7] = target: human LAG-3 domain 1-2 Fc fusion, point mutation #16 H65A (human) (UniProt P18627)
human LAG-3 domain 1-2 Fc fusion, point mutation #16 H65A (human), sequence (P18627 23-266 H65A): as the sequence (P18627 23-266 Y99A) above, with H43A, A77Y counted along it

[8] = target: human LAG-3 domain 1-2 Fc fusion, point mutation #60 P118A (human) (UniProt P18627)
[9] = target: human LAG-3 domain 1-2 Fc fusion, chimeric construct #6 (mutated region AA 48-55) (human) (UniProt P18627)
[10] = target: human LAG-3 domain 1-2 Fc fusion, point mutation #74 P138A (human) (UniProt P18627)
human LAG-3 domain 1-2 Fc fusion, point mutation #74 P138A (human), sequence (P18627 23-266 P138A): as the sequence (P18627 23-266 Y99A) above, with A77Y, P116A counted along it

[11] = target: human LAG-3 domain 1-2 Fc fusion, chimeric construct #18 (mutated region AA 114-119) (human) (UniProt P18627)
human LAG-3 domain 1-2 Fc fusion, chimeric construct #18 (mutated region AA 114-119) (human), sequence (P18627 other isoform, or with tags, fused parts or gaps mutant): as the sequence (P18627 23-266 Y99A) above, with A77Y, L92Q, Q95L, P96S, R97H counted along it

[12] = target: human LAG-3 domain 1-2 Fc fusion, chimeric construct #25 (mutated region AA 154-158) (human) (UniProt P18627)
human LAG-3 domain 1-2 Fc fusion, chimeric construct #25 (mutated region AA 154-158) (human), sequence (P18627 other isoform, or with tags, fused parts or gaps mutant): as the sequence (P18627 23-266 Y99A) above, with A77Y, R132P, A135D, L136F counted along it

[13] = target: human LAG-3 domain 1-2 Fc fusion, point mutation #10 S54A (human) (UniProt P18627)
human LAG-3 domain 1-2 Fc fusion, point mutation #10 S54A (human), sequence (P18627 23-266 S54A): as the sequence (P18627 23-266 Y99A) above, with S32A, A77Y counted along it

[14] = target: human LAG-3 domain 1-2 Fc fusion, point mutation #25 H78A (human) (UniProt P18627)
[15] = target: human LAG-3 domain 1-2 Fc fusion, chimeric construct #8 (mutated region AA 59-66) (human) (UniProt P18627)
[16] = target: human LAG-3 domain 1-2 Fc fusion, chimeric construct #27 (mutated region AA 161-166) (human) (UniProt P18627)
[17] = target: human LAG-3 domain 1-2 Fc fusion, point mutation #21 A74S (human) (UniProt P18627)
human LAG-3 domain 1-2 Fc fusion, point mutation #21 A74S (human), sequence (P18627 23-266 A74S): as the sequence (P18627 23-266 Y99A) above, with A52S, A77Y counted along it

[18] = target: human LAG-3 domain 1-2 Fc fusion, point mutation #1 A40S (human) (UniProt P18627)
human LAG-3 domain 1-2 Fc fusion, point mutation #1 A40S (human), sequence (P18627 23-266 A40S): as the sequence (P18627 23-266 Y99A) above, with A18S, A77Y counted along it

[19] = target: human LAG-3 domain 1-2 Fc fusion, point mutation #65 R125A (human) (UniProt P18627)
[20] = target: human LAG-3 domain 1-2 Fc fusion, point mutation #28 A81S (human) (UniProt P18627)
human LAG-3 domain 1-2 Fc fusion, point mutation #28 A81S (human), sequence (P18627 23-266 A81S): as the sequence (P18627 23-266 Y99A) above, with A59S, A77Y counted along it

[21] = target: human LAG-3 domain 1-2 Fc fusion, point mutation #8 Q51A (human) (UniProt P18627)
[22] = target: human LAG-3 domain 1-2 Fc fusion, point mutation #44 R97A (human) (UniProt P18627)
human LAG-3 domain 1-2 Fc fusion, point mutation #44 R97A (human), sequence (P18627 23-266 R97A): as the sequence (P18627 23-266 Y99A) above, with R75A, A77Y counted along it

[23] = target: human LAG-3 domain 1-2 Fc fusion, point mutation #54 R110A (human) (UniProt P18627)
[24] = target: human LAG-3 domain 1-2 Fc fusion, point mutation #30 G83A (human) (UniProt P18627)
human LAG-3 domain 1-2 Fc fusion, point mutation #30 G83A (human), sequence (P18627 23-266 G83A): as the sequence (P18627 23-266 Y99A) above, with G61A, A77Y counted along it

[25] = target: human LAG-3 domain 1-2 Fc fusion, chimeric construct #5 (mutated region AA 46-51) (human) (UniProt P18627)
human LAG-3 domain 1-2 Fc fusion, chimeric construct #5 (mutated region AA 46-51) (human), sequence (P18627 other isoform, or with tags, fused parts or gaps mutant): as the sequence (P18627 23-266 Y99A) above, with P24L, T25E, I26F, L28H, Q29L, A77Y counted along it

[26] = target: human LAG-3 domain 1-2 Fc fusion, point mutation #62 Q121A (human) (UniProt P18627)
[27] = target: human LAG-3 domain 1-2 Fc fusion, chimeric construct #15 (mutated region AA 95-100) (human) (UniProt P18627)
human LAG-3 domain 1-2 Fc fusion, chimeric construct #15 (mutated region AA 95-100) (human), sequence (P18627 other isoform, or with tags, fused parts or gaps mutant): as the sequence (P18627 23-266 Y99A) above, with R73G, R76S, A77Y, T78V counted along it

[28] = target: human LAG-3 domain 1-2 Fc fusion, point mutation #4 S45A (human) (UniProt P18627)
human LAG-3 domain 1-2 Fc fusion, point mutation #4 S45A (human), sequence (P18627 23-266 S45A): as the sequence (P18627 23-266 Y99A) above, with S23A, A77Y counted along it

[29] = target: human LAG-3 domain 1-2 Fc fusion, point mutation #55 S111A (human) (UniProt P18627)
human LAG-3 domain 1-2 Fc fusion, point mutation #55 S111A (human), sequence (P18627 23-266 S111A): as the sequence (P18627 23-266 Y99A) above, with A77Y, S89A counted along it

[30] = target: human LAG-3 domain 1-2 Fc fusion, point mutation #64 E124A (human) (UniProt P18627)
[31] = target: human LAG-3 domain 1-2 Fc fusion, chimeric construct #22 (mutated region AA 140-142) (human) (UniProt P18627)
human LAG-3 domain 1-2 Fc fusion, chimeric construct #22 (mutated region AA 140-142) (human), sequence (P18627 other isoform, or with tags, fused parts or gaps mutant): as the sequence (P18627 23-266 Y99A) above, with A77Y, R118T, A120K counted along it

[32] = target: human LAG-3 domain 1-2 Fc fusion, point mutation #38 S91A (human) (UniProt P18627)
human LAG-3 domain 1-2 Fc fusion, point mutation #38 S91A (human), sequence (P18627 23-266 S91A): as the sequence (P18627 23-266 Y99A) above, with S69A, A77Y counted along it

[33] = target: human LAG-3 domain 1-2 Fc fusion, chimeric construct #10 (mutated region AA 70-77) (human) (UniProt P18627)
human LAG-3 domain 1-2 Fc fusion, chimeric construct #10 (mutated region AA 70-77) (human), sequence (P18627 other isoform, or with tags, fused parts or gaps mutant limits assumed): as the sequence (P18627 23-266 Y99A) above, with G48D, P49Q, A52S, A53I, G55A, A77Y counted along it

Fab fragment of 25F7-Lag3.5 analogue
KD mutant/KD wild type [1]: 0.7 fold
KD mutant/KD wild type [2]: 1 fold
KD mutant/KD wild type [3]: 0.9 fold
KD mutant/KD wild type [4]: 0.9 fold
KD mutant/KD wild type [5]: 1 fold
KD mutant/KD wild type [6]: 1.2 fold
KD mutant/KD wild type [7]: 1.2 fold
KD mutant/KD wild type [8]: 0.8 fold
KD mutant/KD wild type [9]: 1.4 fold
KD mutant/KD wild type [10]: 1 fold
KD mutant/KD wild type [11]: 0.8 fold
KD mutant/KD wild type [12]: 0.7 fold
KD mutant/KD wild type [13]: 0.8 fold
KD mutant/KD wild type [14]: 0.8 fold
KD mutant/KD wild type [15]: 1.3 fold
KD mutant/KD wild type [16]: 0.8 fold
KD mutant/KD wild type [17]: 0.9 fold
KD mutant/KD wild type [18]: 1.1 fold
KD mutant/KD wild type [19]: 0.9 fold
KD mutant/KD wild type [20]: 0.7 fold
KD mutant/KD wild type [21]: 0.8 fold
KD mutant/KD wild type [22]: 0.9 fold
KD mutant/KD wild type [23]: 0.9 fold
KD mutant/KD wild type [24]: 1 fold
KD mutant/KD wild type [25]: 1.3 fold
KD mutant/KD wild type [26]: 0.9 fold
KD mutant/KD wild type [27]: 1.5 fold
KD mutant/KD wild type [28]: 1 fold
KD mutant/KD wild type [29]: 0.9 fold
KD mutant/KD wild type [30]: 1.1 fold
KD mutant/KD wild type [31]: 1.2 fold
KD mutant/KD wild type [32]: 2.2 fold
KD mutant/KD wild type [33]: 1 fold
